Blank lines part the entries; values can stand above or below the molecule they belong to.
Target: transducin (Homo sapiens, UniProt P11488)
Test: GTPyS uptake assay: effect of BR-rhodopsin loop 3 chimeras on GDP-GTP exchange on transducin
Type: biochemical
Experimental: The ability of the chimeric protein to promote GTP-GDP exchange was evaluated for each of three BR-rhodopsin loop 3 chimeras by evaluating the effect of the chimera on the rate of GDP-GTP exchange on transducin using a GTPyS uptake assay, as described below.
Chimeric or bacteriorhodopsin protein (1.7 uM) was incubated with 0.8 uM holotransducin with 10 nM ^35S radiolabeled GTPyS in buffer (20 mM Hepes (pH 7.5), 5 mM MgCl2, 1 mM DTT, 0.1 mM EDTA, and 20 mM NaCl). The reaction was incubated at 30° C. for 5, 10, 15 or 30 minutes. The reaction was terminated by transferring aliquots of the reaction mixture to nitrocellulose filters (0.45 um) prewetted with wash buffer (10 mM Tris (pH 7.5), 5 mM MgCl2, 100 mM NaC1, 0.1 mM EDTA) and placed on a vacuum manifold. The filters were then washed with 8 ml of wash buffer. The filters were then placed overnight in scintillation vials filled with 20 ml of scintillation cocktail. The activity of the vials was counted by a Liquid Scintillation Counter. For the BR-Rhodopsin loop 3 chimeras, in which the rhodopsin intracellular loop 3 replaced the native BR intracellular loop 3 and was fused from T157 on BR TM 5 to V167 on BR TM 6, activity was determined by an increased uptake of GTPS over basal exchange by transducin alone.
A time course study was next performed for Rhodopsin Insert Y223 to M253 (3C)
The following experiments repeated the study of GTPγS exchange with a new culture of the BR-Rhodopsin chimera for Rhodopsin Insert Y223 (3C) as well as three new chimeras.

[1] = 10 Minutes, new culture of 3C and three new chimeras

transducin, sequence (P11488 2-350 limits assumed): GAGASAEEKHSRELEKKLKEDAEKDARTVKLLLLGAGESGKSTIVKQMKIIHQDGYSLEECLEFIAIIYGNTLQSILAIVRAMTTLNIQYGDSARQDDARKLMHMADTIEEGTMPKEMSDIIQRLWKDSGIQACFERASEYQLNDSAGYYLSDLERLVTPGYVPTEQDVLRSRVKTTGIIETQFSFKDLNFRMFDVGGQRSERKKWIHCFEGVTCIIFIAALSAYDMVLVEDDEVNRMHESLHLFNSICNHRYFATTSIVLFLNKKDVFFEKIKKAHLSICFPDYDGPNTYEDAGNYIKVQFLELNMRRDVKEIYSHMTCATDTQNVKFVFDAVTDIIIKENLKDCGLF
transducin, sequence (P62873 2-340 partner limits assumed): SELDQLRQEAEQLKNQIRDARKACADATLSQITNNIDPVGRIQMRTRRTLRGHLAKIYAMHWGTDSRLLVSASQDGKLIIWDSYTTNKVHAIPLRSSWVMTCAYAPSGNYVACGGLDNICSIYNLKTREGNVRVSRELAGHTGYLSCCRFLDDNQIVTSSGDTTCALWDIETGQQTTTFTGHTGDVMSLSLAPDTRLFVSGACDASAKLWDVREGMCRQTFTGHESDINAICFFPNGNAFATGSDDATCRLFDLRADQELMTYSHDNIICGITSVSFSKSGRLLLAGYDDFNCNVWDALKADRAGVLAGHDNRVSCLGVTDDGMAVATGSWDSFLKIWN
transducin, sequence (P63211 2-71 partner limits assumed): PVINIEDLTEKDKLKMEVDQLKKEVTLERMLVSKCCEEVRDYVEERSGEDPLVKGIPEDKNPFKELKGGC

B2: 3C: bacteriorhodopsin chimera, loop 3 replaced by bovine rhodopsin Y223-M253; loop amino acid sequence SEQ ID NO:30 (protein)
chain: QAQITGRPEWIWLALGTALMGLGTLYFLVKGMGVSDPDAKKFYAITTLVPAIAFTMYLSMLLGYGLTMVPFGGEQNPIYWARYADWLFTTPLLLLDLALLVDADQGTILALVGADGIMIGTGLVGALTKVYSYRFVWWAISTAAMLYILYVLFFGFTYGQLVFTVKEAAAQQQESATTQKAEKEVTRMVASTFKVLRNVTVVLWSAYPVVWLIGSEGAGIVPLNIETLLFMVLDVSAKVGFGLILLRSRAIFGEAEAPEPSAGDGAAATSD
Activation (3C) (×10°) over Basal Exchange (100 μM GDP, 10 Minutes): 1.67 ×10°
Activation by 3C (×100%) Over Basal Exchange (5 Minutes): 1.56 ×100%
Activation by 3C (×100%) Over Basal Exchange (10 Minutes): 1.95 ×100%
Specific counts (Lattice Form) (10 Minutes, 100 uM GDP): 12577 counts
Activation (×100%) Over Basal Exchange [1]: 1.44 ×100%
Specific counts (Lattice Form) [1]: 77125 counts
Specific counts (Lattice Form) (10 Minutes, no peptide (8 uM peptide experiment)): 51423 counts
SPECIFIC COUNTS: (Lattice Form) (10 Minutes, no peptide (50 uM peptide experiment)): 93448 counts
Activation by 3C (×100%) Over Basal Exchange (15 Minutes): 1.97 ×100%
Specific counts (Lattice Form) (time course, 5 min): 26273 counts
Specific counts (Lattice Form) (time course, 10 min): 51423 counts
Specific counts (Lattice Form) (time course, 15 min): 66566 counts

B3: 3E: bacteriorhodopsin chimera, loop 3 replaced by bovine rhodopsin G224-M253; loop amino acid sequence SEQ ID NO:34 (protein)
chain: QAQITGRPEWIWLALGTALMGLGTLYFLVKGMGVSDPDAKKFYAITTLVPAIAFTMYLSMLLGYGLTMVPFGGEQNPIYWARYADWLFTTPLLLLDLALLVDADQGTILALVGADGIMIGTGLVGALTKVYSYRFVWWAISTAAMLYILYVLFFGFTGQLVFTVKEAAAQQQESATTQKAEKEVTRMVASTFKVLRNVTVVLWSAYPVVWLIGSEGAGIVPLNIETLLFMVLDVSAKVGFGLILLRSRAIFGEAEAPEPSAGDGAAATSD
Activation (×100%) Over Basal Exchange [1]: 1.46 ×100%

The next lines start with the values.

Activation (×100%) Over Basal Exchange [1]: 1.0 ×100%
B1: 3D: bacteriorhodopsin chimera, loop 3 replaced by bovine rhodopsin Q225-T251; loop amino acid sequence SEQ ID NO:32 (protein)
chain: QAQITGRPEWIWLALGTALMGLGTLYFLVKGMGVSDPDAKKFYAITTLVPAIAFTMYLSMLLGYGLTMVPFGGEQNPIYWARYADWLFTTPLLLLDLALLVDADQGTILALVGADGIMIGTGLVGALTKVYSYRFVWWAISTAAMLYILYVLFFGFTQLVFTVKEAAAQQQESATTQKAEKEVTVASTFKVLRNVTVVLWSAYPVVWLIGSEGAGIVPLNIETLLFMVLDVSAKVGFGLILLRSRAIFGEAEAPEPSAGDGAAATSD

Activation (×100%) Over Basal Exchange [1]: 1.17 ×100%
B4: 3B: bacteriorhodopsin chimera, loop 3 replaced by bovine rhodopsin Y223-T251; loop amino acid sequence SEQ ID NO:28 (protein)
chain: QAQITGRPEWIWLALGTALMGLGTLYFLVKGMGVSDPDAKKFYAITTLVPAIAFTMYLSMLLGYGLTMVPFGGEQNPIYWARYADWLFTTPLLLLDLALLVDADQGTILALVGADGIMIGTGLVGALTKVYSYRFVWWAISTAAMLYILYVLFFGFTYGQLVFTVKEAAAQQQESATTQKAEKEVTVASTFKVLRNVTVVLWSAYPVVWLIGSEGAGIVPLNIETLLFMVLDVSAKVGFGLILLRSRAIFGEAEAPEPSAGDGAAATSD
